First the molecules themselves.
T1: human MerTK (human, UniProt Q12866 26-499)
T1 construct: also called HuMER
T1 sequence: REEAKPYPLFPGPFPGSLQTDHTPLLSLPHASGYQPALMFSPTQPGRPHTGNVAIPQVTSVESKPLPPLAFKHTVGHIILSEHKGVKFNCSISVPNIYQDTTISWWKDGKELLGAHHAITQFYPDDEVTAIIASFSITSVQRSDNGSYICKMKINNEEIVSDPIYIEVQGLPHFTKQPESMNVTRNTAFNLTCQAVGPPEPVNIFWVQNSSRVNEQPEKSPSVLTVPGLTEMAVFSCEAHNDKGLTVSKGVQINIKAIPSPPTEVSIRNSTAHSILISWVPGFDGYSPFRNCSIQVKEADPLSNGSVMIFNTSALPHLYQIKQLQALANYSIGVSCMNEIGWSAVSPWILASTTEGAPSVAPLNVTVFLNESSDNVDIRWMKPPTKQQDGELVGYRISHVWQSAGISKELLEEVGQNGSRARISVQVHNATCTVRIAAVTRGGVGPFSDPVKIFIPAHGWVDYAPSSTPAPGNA

T2: cynomolgus monkey MerTK (cynomolgus monkey, UniProt A0A2K5V1H9 32-505)
T2 construct: Soluble analyte in SPR; also called Cyno MerTK
T2 sequence: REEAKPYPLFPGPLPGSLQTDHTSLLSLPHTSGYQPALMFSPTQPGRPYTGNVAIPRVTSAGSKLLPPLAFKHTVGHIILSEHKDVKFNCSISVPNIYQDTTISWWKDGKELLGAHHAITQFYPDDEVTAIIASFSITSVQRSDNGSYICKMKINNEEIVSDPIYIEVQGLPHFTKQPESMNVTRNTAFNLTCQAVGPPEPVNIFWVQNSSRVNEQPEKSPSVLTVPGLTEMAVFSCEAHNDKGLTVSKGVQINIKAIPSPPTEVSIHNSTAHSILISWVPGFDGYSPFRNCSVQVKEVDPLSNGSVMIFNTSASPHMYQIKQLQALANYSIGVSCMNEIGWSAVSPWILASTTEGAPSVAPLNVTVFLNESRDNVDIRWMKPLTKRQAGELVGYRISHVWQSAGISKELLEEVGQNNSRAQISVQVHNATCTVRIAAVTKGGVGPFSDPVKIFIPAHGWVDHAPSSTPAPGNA

T3: mouse MerTK (mouse, UniProt Q60805 23-496)
T3 construct: also called MuMER
T3 sequence (looked up): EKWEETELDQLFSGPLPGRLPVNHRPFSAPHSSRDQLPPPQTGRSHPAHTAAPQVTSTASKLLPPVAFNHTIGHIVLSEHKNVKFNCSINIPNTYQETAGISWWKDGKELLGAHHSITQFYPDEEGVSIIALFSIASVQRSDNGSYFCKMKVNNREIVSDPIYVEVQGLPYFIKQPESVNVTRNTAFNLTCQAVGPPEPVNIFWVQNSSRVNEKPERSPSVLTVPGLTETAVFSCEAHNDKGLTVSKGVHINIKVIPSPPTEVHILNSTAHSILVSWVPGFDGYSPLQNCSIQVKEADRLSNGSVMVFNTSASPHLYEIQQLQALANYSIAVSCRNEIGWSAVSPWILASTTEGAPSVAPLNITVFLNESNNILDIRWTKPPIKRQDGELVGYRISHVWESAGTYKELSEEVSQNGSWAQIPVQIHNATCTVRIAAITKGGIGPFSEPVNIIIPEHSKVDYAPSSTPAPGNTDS

T4: MuMER.Ig1&2 (A70-P279) (mouse, UniProt Q60805 70-279)
T4 construct: range 70-279; also called mouse MerTK Ig-like 1&2 domains
T4 sequence (looked up): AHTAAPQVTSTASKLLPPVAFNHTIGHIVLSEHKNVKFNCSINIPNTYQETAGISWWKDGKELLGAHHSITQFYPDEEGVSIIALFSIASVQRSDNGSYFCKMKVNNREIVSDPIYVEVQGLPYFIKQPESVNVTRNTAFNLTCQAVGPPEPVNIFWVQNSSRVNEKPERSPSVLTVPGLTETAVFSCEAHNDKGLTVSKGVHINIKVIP

T5: MuMER.Ig1 (A70-G190) (mouse, UniProt Q60805 70-190)
T5 construct: range 70-190; also called mouse MerTK Ig-like 1 domain
T5 sequence (looked up): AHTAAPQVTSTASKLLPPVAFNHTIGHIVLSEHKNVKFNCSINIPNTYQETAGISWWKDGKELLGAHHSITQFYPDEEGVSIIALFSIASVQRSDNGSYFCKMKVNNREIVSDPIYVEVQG

T6: HuMER (R26-A499) (human, UniProt Q12866 26-499)
T6 construct: Extracellular domain with both Ig-like and both fibronectin-like domains; also called human MerTK extracellular domain
T6 sequence: T1 sequence

T7: HuMER.Ig1&2 (G76-P284) (human, UniProt Q12866 76-284)
T7 construct: also called human MerTK Ig-like 1&2 domains
T7 sequence: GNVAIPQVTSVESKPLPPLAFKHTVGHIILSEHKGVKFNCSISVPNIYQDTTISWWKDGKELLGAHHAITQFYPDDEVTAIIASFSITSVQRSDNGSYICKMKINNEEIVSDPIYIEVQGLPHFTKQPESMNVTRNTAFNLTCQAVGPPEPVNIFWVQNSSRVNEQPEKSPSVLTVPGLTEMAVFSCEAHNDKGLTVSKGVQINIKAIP

T8: HuMER.Ig1 (G76-G195) (human, UniProt Q12866 76-195)
T8 construct: also called human MerTK Ig-like 1 domain
T8 sequence: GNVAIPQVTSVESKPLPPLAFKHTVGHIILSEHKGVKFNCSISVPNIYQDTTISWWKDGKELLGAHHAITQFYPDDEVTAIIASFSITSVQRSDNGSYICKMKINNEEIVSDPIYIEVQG

T9: MuMER (E23-S496) (mouse, UniProt Q60805 23-496)
T9 construct: range 23-496; also called mouse MerTK extracellular domain
T9 sequence (looked up): T3 sequence (looked up)

B1: Rbt18G7 (antibody, V domains shown)
VH: QSLEESGGRLVTPGTPLTLTCTVSGIDLSSYALGWVRQAPGKGLEYIGIISSTGTTYYATWAKGRFTISKTSSTTVDLKITGPTTEDTATYFCARGAYAGYVAFGPYYFHIWGPGTLVTISL
VL: DIVMTQTPASVEAAVGGTVTIKCQASQSISNFLAWYQQKPGQPPKVLIYAASHLASGVPSRFKGSGSGTQFTLTISDLECADAATYYCQSYFYSSTSIYNAFGGGTEVVVR
notes: Recombinant rabbit monoclonal antibody, Expi293, protein A purified
B2: Rbt11G11 (antibody, V domains shown)
VH: QELVESGGGLVQAGESLKLSCKASGIDFSSYGISWVRQAPGKGLEWIAYIYPGFGITNYAHSVKGRFTISSDNAQNTVFLQMPSLTASDTATYFCARDLDYTGGVVGYAYVTYYFTLWGPGTLVTVSS
VL: DPVLTQTPSSVEAAVGGTVTIKCQASESISSRLAWYQQKPGQPPKLLIYSASTLASGVSSRFKGSGSGTEFTLTISDLECADAATYYCQTYYGGSTTGWYVFGGGTEVVVK
notes: as for B1
B3: Rbt13B4 (antibody, V domains shown)
VH: QSVEESGGRLVTPGTPLTLTCTVSGFSLSSYAMGWVRQAPGKGLEWIGIINSYGNTYYANWAKGRFTISRTSTTVDLRMPSLTTEDTATYFCARDPGVSSNLWGPGTLVTVSS
VL: DVVMTQTPASVSEPVGGTVTIKCQASQNIYSGLAWYQQKPGQPPKLLIYGASKLASGVSSRFKGSGSGTEFTLTISDLECADAATYYCQATYYSSNSVAFGGGTEVVVK
notes: Recombinant rabbit monoclonal antibody, Expi293, protein A purified; also called Rb13B4
B4: Rbt12H4 (antibody, V domains shown)
VH: QSVEESGGRLVTPGTPLTVTCTVSGFSLSVYGMGWVRQAPGKGLEYIGFINNVGNTYYASWAKGRFTISKTSTTVDLKITSPTTEDTATYFCAKGGGGDWGYFNIWGPGTLVTVSL
VL: DVVMTQTPASVEAAVGGTVTIKCQASQSIGNALAWYQQKPGQRPKLLIYAASNLASGVPSRFAGSGSGTQFTLTISDLECADAATYYCQTYYAINRYGGAFGGGTEVVVK
notes: as for B1
B5: Rbt14C9 (antibody, V domains shown)
VH: QSVEESGGRLVTPGTPLTLTCTVSGIDLSANTMNWVRQAPGKGLEWIGIFTATGSTYYATWVNGRFTISKTSTTVDLKITSPTTEDTATYFCARSGSGSSSGAFNIWGPGTLVTVSL
VL: DPVLTQTPASVSEPVGGTVTIKCQASQSISSSLAWYQQKPGQPPKLLIYAASILASEISSRFKGSRSGTEFTLTISDLECADAATYYCQCTSYGSLFLGPFGGGTEVVVK
notes: as for B1

One assay addresses T1, human MerTK. Put plainly: SPR BIAcore T200, Ab captured, 25C. The protocol:
(§1) All binding affinity determinations were obtained using Surface Plasmon Resonance (SPR) measurements from a BIAcore™-T200 instrument. Briefly, each rabbit or humanized antibody was captured to achieve approximately 100 RU (Response Units). Then, 3-fold serial dilutions of MerTK from various species (0.4 nM to 100 nM) diluted in HBS-EP buffer (0.01M HEPES pH 7.4, 0.15M NaCl, 3 mM EDTA and 0.05% v/v surfactant P20) was injected into the BIAcore™-T200 instrument at 25° C. or 37° C. with a flow rate of 30 μl/min. Association rates (kₒₙ) and dissociation rates (koff) were calculated using a simple one-to-one Langmuir binding model (BIAcore T200 evaluation software version 2.0). The equilibrium dissociation constant (KD) was calculated as the ratio koff/kₒₙ.
For orientation: SPR reads the build-up and loss of mass on a sensor chip optically.
For B1, binding was put at a Kd of 2.3 nM.
On the same count and under the same terms, the same measure for B2: 31.3 nM.
On the same count and under the same terms, next, B3: 2.9 nM.
As for B4, the affinity, expressed as Kd, was 18 nM.

The target in a further assay is T2, cynomolgus monkey MerTK. Put plainly: SPR BIAcore T200, Ab captured, 25C. As to the method: as §1
As for B1, binding was put at a Kd of 4.3 nM.
The same measure, in the same setting: next, B2: 14.3 nM.
Same read-out and setting: next, B3: 1.8 nM; B4: 13.9 nM.

The target in another assay is T3, mouse MerTK. Put plainly: SPR BIAcore T200, Ab captured, 25C. The protocol:
as §1
Take B1: the Kd (as a rule, the concentration at which binding is half-saturated) was 1.7 nM.
B2 showed a Kd of 4.1 nM.
Still for that read-out and setting: next, B4: 8.5 nM; B5: 0.6 nM.

In another assay the target is T1, human MerTK. Put plainly: SPR BIAcore T200, Ab captured, 37C. The protocol:
as §1
B3 showed a Kd of 4.9 nM.

The target of the next assay is T2, cynomolgus monkey MerTK. Put plainly: SPR BIAcore T200, Ab captured, 37C. The protocol: as §1
As for B3, binding was characterised by a dissociation constant (Kd) of 5.9 nM.

In another assay the target is T4, MuMER.Ig1&2 (A70-P279). Put plainly: SPR BIAcore T200, Ab captured, 25C. The protocol:
(§2) Binding affinity determinations were obtained using Surface Plasmon Resonance (SRP) measurements from a BIAcore™-T200 instrument. Briefly, each rabbit antibody was captured to achieve approximately 100 RU (Response Units). Then, 3-fold serial dilutions of the various MerTK domains (0.4 nM to 100 nM) diluted in HBS-EP buffer (0.01M HEPES pH 7.4, 0.15M NaCl, 3 mM EDTA and 0.05% v/v surfactant P20) was injected into the BIAcore™-T200 instrument at 25° C. or 37° C. with a flow rate of 30 μl/min. Association rates (kₒₙ) and dissociation rates (koff) were calculated using a simple one-to-one Langmuir binding model (BIAcore T200 evaluation software version 2.0). The equilibrium dissociation constant (KD) was calculated as the ratio koff/kₒₙ.
(§3) Antibody epitope determination was assessed by BIAcore analysis for rabbit antibodies binding against both the human and mouse MerTK extracellular domain (HuMER R26-A499 and MuMER E23-S496), Ig1&2 domain, Ig1-only domain, and Ig2-only domain (TABLE 18). Human MerTK and its domains are shown in light gray, while mouse MerTK and its domains are shown in dark gray.
Molecule B1 registered a Kd of 1.9 nM.
The molecule B2 registered a dissociation constant (Kd) of 3.4 nM.
In the case of B4, the Kd turned out to be 11 nM.
B5 gave a Kd of 0.5 nM.

Another assay has as its target T5, MuMER.Ig1 (A70-G190). Put plainly: SPR BIAcore T200, Ab captured, 25C. The protocol: as §2, §3
In turn, B1 came in with a Kd of 0.2 nM.
The molecule B4 registered a Kd of 2.2 nM.
Consider B5, for which the affinity, expressed as Kd, was 0.1 nM.

The next assay addresses T6, HuMER (R26-A499). Put plainly: SPR BIAcore T200, Ab captured, 25C. As to the method: as §2, §3
The molecule B1 showed an equilibrium dissociation constant (Kd) of 2.3 nM.
B2: the affinity, expressed as Kd, was 31.3 nM.
Same read-out and setting: the same measure for B3: 2.9 nM.
The same measure, in the same setting: next, B4: 18 nM.

In another assay the target is T7, HuMER.Ig1&2 (G76-P284). Put plainly: SPR BIAcore T200, Ab captured, 25C. As to the method: as §2, §3
B1 gave a Kd of 21 nM.
B3: binding was characterised by a dissociation constant (Kd) of 8.8 nM.
B4 showed a Kd of 92 nM.

A further assay has as its target T8, HuMER.Ig1 (G76-G195). Put plainly: SPR BIAcore T200, Ab captured, 25C. As to the method: as §2, §3
B1 gave a Kd of 0.5 nM.
For B2, the Kd worked out at 39.8 nM.
The molecule B3 yielded a Kd of 0.3 nM.
On the same count and under the same terms, next, B4: 16.7 nM.

The target of the next assay is T9, MuMER (E23-S496). Put plainly: SPR BIAcore T200, Ab captured, 25C. As to the method:
as §2, §3
In turn, B1 returned a Kd of 1.7 nM.
Still for that read-out and setting: next, B2: 4.1 nM.
The same measure, in the same setting: next, B4: 8.5 nM; B5: 0.6 nM.
